Assays:
[1] = test system: human cartilage endplate (CEP) cells; experiment: PDA nanoparticle / free bevacizumab dose effect on human cartilage endplate (CEP) cell viability; type: cell-based
[2] = test system: human annulus fibrosus (AF) cells; experiment: PDA nanoparticle / free bevacizumab dose effect on human annulus fibrosus (AF) cell viability; type: cell-based; settings: doses higher than 1 mg/mL

For Bevacizumab, the cell viability ([1]; 1 mg/mL dosing) was 30%, the cell viability ([1]; up to 0.5 mg/mL) was greater than 80% and the cell viability [2] was “approximately 30%”.
